This is an account of results in patent CN109721655A (ZONHON BIOPHARMA INST INC, dated 2019).

Experiment [1] addresses T1, 重组人肌红蛋白 (recombinant human myoglobin, expressed in E. coli, made in-house) (human, UniProt P02144 2-154).
T1 construct: also called 人MYO; 重组人MYO
T1 sequence (looked up): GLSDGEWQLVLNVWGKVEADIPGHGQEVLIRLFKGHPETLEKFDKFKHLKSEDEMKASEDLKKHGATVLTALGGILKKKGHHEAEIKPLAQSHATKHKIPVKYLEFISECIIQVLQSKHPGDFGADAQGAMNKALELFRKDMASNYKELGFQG
In words: Western blot of recombinant MYO with HRP-labelled M08 (1:1000).

The target in experiment [2] is T1, 重组人肌红蛋白 (recombinant human myoglobin, …). The experiment in a line: Western blot of recombinant MYO with HRP-labelled M26 (1:1000). Background: A western blot detects proteins with antibodies after separation by electrophoresis.
For experiment [3] the target is unchanged. The experiment in a line: indirect ELISA, hybridoma supernatant on plates coated with recombinant human MYO at 1 μg/mL, HRP goat anti-mouse IgG. Background: An ELISA detects its analyte on a solid surface through an enzyme-linked reagent.

B1: 单链抗体M08 (anti-human myoglobin scFv M08, His-tagged, expressed in E. coli) (scFv)
scFv: QVQLQQSGAELAKPGASVKMSCKASGYTFTSYWMHWVKQRPGQGLEWIGYIKPNTDYTEYNQKFKDKATLTADKSSSTAYMQLSSLTSEDSAVYYCTRIRGYALDYWGQGTSVTVSSGGGGSGGGGSGGGGSDIVMTQSPSSLTVTAGEKVTMICKSSQSLLNSGNQKNYLTWYQQKPGQPPKLLIYWASTRESGVPDRFTGSGSGTDFTLTISSVQAEDLAVYYCQNDYNFPLTFGAGTKLELK
notes: Purified on HisTrap HP; HRP-labelled for the Western blot; Coupled to time-resolved fluorescent microspheres in the test card; also called M08抗体; M08-scFv; not shown: histidine tag added downstream of the scFv gene
As to B1, in experiment [1], the binding result was “binds”.

B2: 单链抗体M26 (anti-human myoglobin scFv M26, His-tagged, expressed in E. coli) (scFv)
scFv: QVQLQQSGDDLVKPGASVKLSCKASGYTFTSYWINWIKQRPGQGLEWIGRIAPEGDSTYYNEMFKGKATLTVDTSSSTAYIQLSSLSSEDSAVYFCAREVRNAMDYWGQGTSVTVSSGGGGSGGGGSGGGGSDIQMNQSPSSLSASLGDTITITCHASQNIHVWLSWYLQKPGNITKLLIYEASNLHTGVPSRFSGSGSGTGFTLTISSLQPEDIATYYCQQGQRYPLTFGGGTKLEIK
notes: Purified on HisTrap HP; HRP-labelled for the Western blot; Coated on the T line of the nitrocellulose membrane in the test card; also called M26抗体; M26-scFv; not shown: histidine tag added downstream of the scFv gene
As for B2, the binding result in experiment [2] is on record as “binds”.

B3: 杂交瘤细胞株M08的抗体 (mouse monoclonal antibody from hybridoma M08) (antibody, V domains shown)
VH: QVQLQQSGAELAKPGASVKMSCKASGYTFTSYWMHWVKQRPGQGLEWIGYIKPNTDYTEYNQKFKDKATLTADKSSSTAYMQLSSLTSEDSAVYYCTRIRGYALDYWGQGTSVTVSS
VL: DIVMTQSPSSLTVTAGEKVTMICKSSQSLLNSGNQKNYLTWYQQKPGQPPKLLIYWASTRESGVPDRFTGSGSGTDFTLTISSVQAEDLAVYYCQNDYNFPLTFGAGTKLELK
notes: Tested as hybridoma culture supernatant; Mouse IgG, detected with HRP goat anti-mouse IgG
Take B3: the binding result in experiment [3] is “binds”.

B4: 杂交瘤细胞株M26的抗体 (mouse monoclonal antibody from hybridoma M26) (antibody, V domains shown)
VH: QVQLQQSGDDLVKPGASVKLSCKASGYTFTSYWINWIKQRPGQGLEWIGRIAPEGDSTYYNEMFKGKATLTVDTSSSTAYIQLSSLSSEDSAVYFCAREVRNAMDYWGQGTSVTVSS
VL: DIQMNQSPSSLSASLGDTITITCHASQNIHVWLSWYLQKPGNITKLLIYEASNLHTGVPSRFSGSGSGTGFTLTISSLQPEDIATYYCQQGQRYPLTFGGGTKLEIK
notes: as for B3
For B4, in experiment [3], the binding result is reported as “binds”.
